These are literature values, as cited in PMC4610412.

The target in this series is pCdc25C (Homo sapiens) (UniProt P30307). The experiment in a line: ITC. (ITC needs no label: the signal is the heat of the interaction.)
pCdc25C (Homo sapiens), sequence (P30307 2-473): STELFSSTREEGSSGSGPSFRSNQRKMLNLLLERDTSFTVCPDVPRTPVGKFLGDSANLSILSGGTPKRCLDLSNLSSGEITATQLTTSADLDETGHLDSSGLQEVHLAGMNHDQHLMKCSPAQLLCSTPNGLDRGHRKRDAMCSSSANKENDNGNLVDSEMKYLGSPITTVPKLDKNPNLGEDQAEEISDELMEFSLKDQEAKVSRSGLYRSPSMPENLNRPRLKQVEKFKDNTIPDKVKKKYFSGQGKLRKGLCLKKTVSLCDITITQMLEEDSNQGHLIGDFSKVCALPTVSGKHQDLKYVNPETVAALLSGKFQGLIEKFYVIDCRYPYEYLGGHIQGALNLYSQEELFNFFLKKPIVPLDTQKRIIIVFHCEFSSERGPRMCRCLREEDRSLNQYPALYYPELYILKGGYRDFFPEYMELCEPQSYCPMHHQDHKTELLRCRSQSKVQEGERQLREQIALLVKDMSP

Pin1 PPIase, sequence (Q13526 52-163): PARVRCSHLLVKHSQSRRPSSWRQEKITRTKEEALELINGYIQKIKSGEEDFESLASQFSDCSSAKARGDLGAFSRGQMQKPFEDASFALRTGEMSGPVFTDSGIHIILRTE
Pin1 WW, sequence (Q13526 2-42): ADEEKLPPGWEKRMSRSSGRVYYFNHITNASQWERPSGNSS

For Pin1 PPIase (from UniProt Q13526), the Kd was 1000 µM.

With Pin1 WW (from UniProt Q13526), the Kd was 13 µM.

For orientation: Kd means the concentration at which binding is half-saturated.
